Like-named read-outs stand apart in the source and are kept apart here.
Columns and labels:
[1] = molecular target: T1, human Argonaute-2 loaded with miR-122 (hAgo2:miR-122) (Homo sapiens, UniProt Q9UKV8 1-859); assay: EMSA
[2] = molecular target: T1, human Argonaute-2 loaded with miR-122 …; assay: EMSA; remark: listed apart in the source

T1 sequence (Q9UKV8 whole entry): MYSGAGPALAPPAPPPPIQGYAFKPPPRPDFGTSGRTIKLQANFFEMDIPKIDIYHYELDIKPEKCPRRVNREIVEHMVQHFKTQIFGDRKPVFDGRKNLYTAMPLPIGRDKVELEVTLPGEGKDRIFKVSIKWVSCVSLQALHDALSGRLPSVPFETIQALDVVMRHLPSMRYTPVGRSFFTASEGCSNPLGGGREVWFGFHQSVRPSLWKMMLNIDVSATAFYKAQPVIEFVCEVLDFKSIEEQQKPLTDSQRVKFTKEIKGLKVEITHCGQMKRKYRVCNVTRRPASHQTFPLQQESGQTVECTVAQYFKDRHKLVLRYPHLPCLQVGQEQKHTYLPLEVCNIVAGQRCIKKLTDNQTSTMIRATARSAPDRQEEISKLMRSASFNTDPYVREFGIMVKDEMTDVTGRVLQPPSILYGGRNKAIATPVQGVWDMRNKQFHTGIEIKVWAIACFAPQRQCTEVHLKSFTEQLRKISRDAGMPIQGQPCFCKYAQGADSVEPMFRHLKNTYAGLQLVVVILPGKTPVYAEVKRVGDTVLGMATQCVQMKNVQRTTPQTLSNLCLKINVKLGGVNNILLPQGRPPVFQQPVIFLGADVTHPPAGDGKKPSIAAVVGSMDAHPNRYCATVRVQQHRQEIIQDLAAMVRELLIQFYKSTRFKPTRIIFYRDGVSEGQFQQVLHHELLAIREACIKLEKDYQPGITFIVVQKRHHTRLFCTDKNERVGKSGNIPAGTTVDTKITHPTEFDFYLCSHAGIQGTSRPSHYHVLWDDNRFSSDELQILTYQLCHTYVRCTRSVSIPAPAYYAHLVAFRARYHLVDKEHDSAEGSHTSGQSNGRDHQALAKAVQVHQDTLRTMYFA

Binder	Kd [1] [nM]	Kd [2] [nM]
miR-122 guide / HCV S2p3,4 1-42 target (mixed, 5'-phosphate on miR-122 guide) RNA 1: UGGAGUGUGACAAUGGUGUUUGU RNA 2: ACCUGCCCCUAAUAGGGGCGACACUCCGCCAUGAAUCACAGC	0.063 ± 0.01	–
miR-122 guide / HCV 1-42 WT target (mixed, 5'-phosphate on miR-122 guide) RNA 1: UGGAGUGUGACAAUGGUGUUUGU RNA 2: ACCUGCCCCUAAUAGGGGCGACACUCCGCCAUGAAUCACUCC	–	0.25 ± 0.031

From article PMC6547439
